In PMC11229372, “New Drosophila promoter-associated architectural protein Mzfp1 interacts with CP190 and is required for housekeeping gene expression and insulator activity”:

How the values were obtained:
MBP-Mzfp1 MADF1-MADF2 = molecular target: T1, MBP-Mzfp1 MADF1-MADF2 (Drosophila melanogaster, UniProt Q1LZ24 100-434); test: EMSA; no specific binding; 0.1 mM ZnSO4, poly(dI-dC); PBS pH 8.0, 5 mM MgCl2, 0.1 mM ZnSO4, 1 mM DTT, 0.1% NP-40, 10% glycerol, poly(dI-dC), room temperature, 30 min; 5% native PAGE in 0.5x TBE; conditions: protein: recombinant; tags: MBP; label: Cy5; blunt
T1 sequence: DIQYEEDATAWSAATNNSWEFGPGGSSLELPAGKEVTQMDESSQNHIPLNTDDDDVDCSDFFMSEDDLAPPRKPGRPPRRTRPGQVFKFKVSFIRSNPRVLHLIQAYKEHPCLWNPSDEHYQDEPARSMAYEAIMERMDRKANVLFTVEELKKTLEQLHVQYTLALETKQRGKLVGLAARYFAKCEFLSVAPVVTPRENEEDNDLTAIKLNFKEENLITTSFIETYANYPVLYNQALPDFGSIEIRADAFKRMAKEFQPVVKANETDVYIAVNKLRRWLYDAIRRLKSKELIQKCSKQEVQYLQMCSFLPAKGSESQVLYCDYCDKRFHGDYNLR

MBP-Mzfp1 full-length = molecular target: T2, MBP-Mzfp1 full-length (Drosophila melanogaster, UniProt Q1LZ24 1-586); test: EMSA; 0.1 mM ZnSO4, 5 mM MgCl2, poly(dI-dC); PBS pH 8.0, 5 mM MgCl2, 0.1 mM ZnSO4, 1 mM DTT, 0.1% NP-40, 10% glycerol, poly(dI-dC), room temperature, 30 min; 5% native PAGE in 0.5x TBE; conditions: protein: recombinant; tags: N-terminal MBP; label: Cy5; blunt
T2 sequence: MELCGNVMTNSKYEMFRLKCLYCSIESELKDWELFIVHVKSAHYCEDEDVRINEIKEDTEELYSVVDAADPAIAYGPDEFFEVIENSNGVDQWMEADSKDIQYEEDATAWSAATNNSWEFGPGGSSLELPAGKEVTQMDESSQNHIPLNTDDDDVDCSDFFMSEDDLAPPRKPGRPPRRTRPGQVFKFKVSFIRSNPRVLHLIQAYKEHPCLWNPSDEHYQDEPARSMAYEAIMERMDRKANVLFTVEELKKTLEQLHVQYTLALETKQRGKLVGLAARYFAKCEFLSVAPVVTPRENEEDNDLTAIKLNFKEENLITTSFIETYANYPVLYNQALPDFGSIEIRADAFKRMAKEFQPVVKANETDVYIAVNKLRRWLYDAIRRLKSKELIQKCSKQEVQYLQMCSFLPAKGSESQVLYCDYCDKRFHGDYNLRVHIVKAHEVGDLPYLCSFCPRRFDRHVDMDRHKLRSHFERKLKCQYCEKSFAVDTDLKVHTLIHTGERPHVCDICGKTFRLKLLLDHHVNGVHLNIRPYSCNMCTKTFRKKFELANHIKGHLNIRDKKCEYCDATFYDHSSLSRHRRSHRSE

B1: Mzfp1x4 (dsDNA)
DNA 1: GAATTCTAAGCTCTTTGTCGATATCTTGACACACCTATATGATTACTAAGCTCTTTGTCGATATCTTGACACACCTATATGAATTCTAAGCTCTTTGTCGATATCTTGACACACCTATATGATTACTAAGCTCTTTGTCGATATCTTGACACACCTATATGAATTCCTGCAG
DNA 2: CTGCAGGAATTCATATAGGTGTGTCAAGATATCGACAAAGAGCTTAGTAATCATATAGGTGTGTCAAGATATCGACAAAGAGCTTAGAATTCATATAGGTGTGTCAAGATATCGACAAAGAGCTTAGTAATCATATAGGTGTGTCAAGATATCGACAAAGAGCTTAGAATTC
binding result (MBP-Mzfp1 MADF1-MADF2): no binding | binding result (MBP-Mzfp1 full-length): binds
